Assay results as given in article PMC8727931, “The crystal structure of the FAM134B–GABARAP complex provides mechanistic insights into the selective binding of FAM134 to the GABARAP subfamily” (FEBS Open Bio, 2021).
No end group written: not given here.

Legend:
Conditions in all cases: both partners purified
[1] = molecular target: T1, GABARAP (recombinant, for ITC, SEC and crystallization) (UniProt Q9DCD6 1-117); test: ITC; VP-ITC, 25 °C; 50 mM Tris/HCl pH 7.5, 100 mM NaCl, 1 mM DTT, 1 mM EDTA; GABARAP or LC3A (350 uM) injected into Trx-tagged FAM134B (35 uM) in the cell; one-site binding model
T1 construct: GABARAP; also called recombinant GABARAP protein; source: E. coli BL21 (DE3), purified
T1 sequence (Q9DCD6 whole entry): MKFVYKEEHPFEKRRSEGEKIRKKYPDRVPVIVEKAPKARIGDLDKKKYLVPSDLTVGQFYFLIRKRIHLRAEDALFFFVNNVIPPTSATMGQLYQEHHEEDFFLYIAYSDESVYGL

[2] = molecular target: T2, LC3A (recombinant, for ITC) (UniProt Q91VR7 1-121); test: as above
T2 construct: LC3A; source: E. coli BL21 (DE3), purified

GABARAPL1 [3] = molecular target: T3, GABARAPL1 (UniProt Q8R3R8 1-117); test: SEC-MALS; Superose 12 10/300GL column; 100 mM NaCl, 50 mM Tris/HCl pH 7.5, 1 mM DTT, 1 mM EDTA; proteins mixed at a 1:1 molar ratio
T3 construct: GABARAPL1; source: E. coli BL21 (DE3), purified

LC3B = LC3B (UniProt Q9CQV6 1-120); test: as above
GABARAPL1 [4] = molecular target: T3, GABARAPL1; test: SEC; FAM134A mixed with GABARAPL1 or LC3B at a 1:1 molar ratio; qualitative

| Binder | Kd [1] [nM] | Kd [2] [nM] | binding result (GABARAPL1 [3]) | binding result (LC3B) | binding result (GABARAPL1 [4]) |
| --- | --- | --- | --- | --- | --- |
| EGDDFELLDQSELDQIESELGLTQDQ (domain or fragment, UniProt Q9H6L5 451-476, looked up, also: Trx-tagged, FAM134B (reticulophagy regulator 1), LIR and C-terminal extension, residues 451-476; 451-476 is what the results give for FAM134B LIR; Named 'Trx-tagged FAM134B' for ITC; I take the same construct for SEC-MALS; source: E. coli BL21 (DE3), purified (Ni2+-NTA, size-exclusion chromatography); not shown: Trx-His6, N-terminal, kept) [Trx-tagged FAM134B LIR (aa 451-476)] | 42 | ~376 | binds | binds | – |
| TTEDFELLDQGELEQLNAELGLEPET (domain or fragment, FAM134A, human, residues 488-513; source: E. coli BL21 (DE3), purified) [human FAM134A fragment (residues 488-513)] | – | – | – | – | binds |
